Numbered stars: 1 amine (or outer) side, 2 acyl side, 3 side chain; on linkers, the order of the positions; unused ones are H or OH. Bridge positions count the residues as written; N and C are the ends. Square brackets hold non-standard residues; d marks the D form. Side chains are listed from the residue outwards. Peptide text beside a SMILES is read from it. * marks the point of attachment. DOTA(Lu) = O=C1CN2CCN3CCN(CC(=O)*)CCN(CC2)CC(=O)[O][Lu]([O]1)[O]C(=O)C3; DOTA = O=C(O)CN1CCN(CC(=O)O)CCN(CC(=O)*)CCN(CC(=O)O)CC1; Trp(1-Me,7-Cl) = Cn1cc(C[C@H](N)C(=O)O)c2cccc(Cl)c21; dPhe(3-CONH2) = NC(=O)c1cccc(C[C@@H](N)C(=O)O)c1; Piperazinyl(4-CH2COOH) = O=C(O)CN1CCN(*)CC1; Trp(1-Me) = Cn1cc(C[C@H](N)C(=O)O)c2ccccc21; NMe3Pal = CN[C@@H](Cc1cccnc1)C(=O)O; Gly(cBu) = N[C@H](C(=O)O)C1CCC1; NMeE = CN[C@@H](CCC(=O)O)C(=O)O; Aad = N[C@@H](CCCC(=O)O)C(=O)O; CO = O=C([*:1])[*:2]
Key:
[1] = molecular target: T1, EphA2 (Biotin-Avi-His-EphA2; Fc-EphA2 where the peptide had a biotin) (Homo sapiens, UniProt P29317); assay: Surface plasmon resonance (SPR) peptide binding, Biacore 8K, immobilized EphA2, single cycle kinetics (Example C7); settings: 25 °C, Langmuir 1:1
T1 construct: His; purchased SinoBiologicals 13926-H27H-B
Experimental: Example C7. Surface Plasmon Resonance (SPR)
For analysis of peptide binding, a Biacore 8K instrument was used utilizing a SA chip. Biotin-Avi-His-EphA2 (SinoBiologicals, 13926-H27H-B) was immobilized on the chip using streptavidin-biotin chemistry at 25 °C in HBS-P+ buffer (10 mM HEPES, 150 mM NaCl, 0.05% Tween-20, pH 7.4) to a level of 1000-2000 RU (dependent on the analyte molecular weight). […] A dilution series of peptides was prepared in this buffer with a final DMSO concentration of 0.1% with a top peptide concentration between 10-100 nM and 9 further 2-fold dilutions. The SPR analysis was run at 25 °C at a flow rate of 30 μL/min in HBS-P+ with 0.1% DMSO running buffer and with a 120 second association and 1,200 second dissociation using single cycle kinetics methodology. All data was analyzed using Biacore Insight Evaluation Software version 4. Data was fitted using a Langmuir 1:1 binding model.

[2] = Plasma stability (% remaining and T1/2 of test compound in human plasma; Table C1); format: in vitro ADME
Experimental: (§1) The % remaining of test compound after incubation in plasma was calculated using the following equation:
(§2) % Remaining=100×(PAR(t)/PAR(t0)), where PAR is the peak area ratio of analyte versus internal standard (IS)

[3] = Plasma stability (% remaining of test compound in CD-1 (ICR) mouse plasma at 37 °C; Example C1); format: in vitro ADME
Experimental: Example C1. Plasma Stability
The pooled frozen CD-1 (ICR) mouse plasma was thawed in a water bath at 37 °C prior to experiment. Plasma was centrifuged at 4000 rpm for 5 min and the clots were removed if any. pH was adjusted to 7.4±0.1 if required.
Plasma (98 μL) and test compounds (2 μL, 100 μM, in DMSO) or reference compound propantheline bromide (2 μL, 100 μM in 40% v/v MeOH/H2O) were added to the individual wells of a 96-well microtiter plate in duplicate. The plate was incubated at 37 °C. During the incubation, aliquots were withdrawn at 0, 10, 30, 60, 120, and 300 minutes. 100 μL 4% H3PO4 and 800 μL of stop solution (200 ng/mL tolbutamide and 200 ng/mL labetalol in 100% CH3CN) were added to precipitate unwanted proteins. After mixing thoroughly, the quenched aliquots were centrifuged at 4,000 rpm for 20 min. Aliquots (100 μL) of supernatant were transferred to a new plate. The samples were shaken at 800 rpm for 10 min before performing LC-MS/MS analysis.
The analytes were detected by a multiple reaction monitoring method using a SCIEX Triple Quad 6500+ system equipped with an ACQUITY UPLC HSS T3 column (100 Å, 1.8 μm, 2.1 mm×30 mm). Mobile phase A: water with 0.1% formic acid; Mobile phase B: CH3CN with 0.1% formic acid.
as §1, §2

[4] = molecular target: T2, Recombinant Human EphA2 Fc Protein (Homo sapiens, UniProt P29317); assay: Interaction analysis (kinetics, KD) of peptides and conjugates against EphA2 by SPR, Biacore T200, single-cycle kinetics (Examples B15 and B22); format: binding; settings: conjugates, Biacore T200 according to Example B15, Table B16; read-out: SPR Kd
T2 construct: purchased Elabscience
Method in brief: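 Biacore T200 SPR with Fc-tagged human EphA2 captured via anti-human antibody; running buffer HBS-P+ pH 7.4 with 1% DMSO, 25 °C. Five serial dilutions of peptide or conjugate run by single-cycle kinetics; KD from ka and kd after baseline subtraction.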

T1 sequence (P29317 24-534 limits assumed): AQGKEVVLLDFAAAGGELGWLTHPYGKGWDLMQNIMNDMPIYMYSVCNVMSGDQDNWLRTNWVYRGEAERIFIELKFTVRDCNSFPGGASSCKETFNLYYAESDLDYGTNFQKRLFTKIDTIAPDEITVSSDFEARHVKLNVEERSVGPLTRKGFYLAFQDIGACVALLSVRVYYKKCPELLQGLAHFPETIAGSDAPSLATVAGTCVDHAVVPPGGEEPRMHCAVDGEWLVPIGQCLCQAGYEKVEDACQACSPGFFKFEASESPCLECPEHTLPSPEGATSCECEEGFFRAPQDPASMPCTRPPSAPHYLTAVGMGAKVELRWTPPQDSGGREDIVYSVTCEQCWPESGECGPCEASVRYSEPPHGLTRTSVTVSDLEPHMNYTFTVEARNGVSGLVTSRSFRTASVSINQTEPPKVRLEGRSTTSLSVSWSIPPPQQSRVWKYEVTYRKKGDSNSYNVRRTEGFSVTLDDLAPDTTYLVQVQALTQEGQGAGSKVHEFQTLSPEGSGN
T2 sequence (P29317 24-534 limits assumed): as above

CC(C)C[C@@H]1NC(=O)[C@H](CC(N)=O)NC(=O)[C@H](Cc2cccnc2)N(C)C(=O)[C@@H](C)NC(=O)CSC[C@@H](C(=O)N[C@H](CCCCNC(=O)CN2CCN3CCN4CCN(CC2)CC(=O)[O][Lu]([O]C(=O)C3)[O]C(=O)C4)C(N)=O)NC(=O)[C@H](CCCC(N)=O)NC(=O)[C@H]([C@@H](C)O)NC(=O)[C@H](Cc2cn(C)c3ccccc23)NC(=O)[C@H](CCCCNC(=O)N2CCN(CC(=O)O)CC2)NC(=O)[C@H](Cc2cn(C)c3ccccc23)NC(=O)[C@H](CCC(=O)O)N(C)C(=O)[C@H](CCCC(N)=O)NC1=O [PDC_EphA2-00007196-C302] ({CH2CO}-[dA][NMe3Pal]NL[Aad](NH2)[NMeE][Trp(1-Me)]K([CO-Piperazinyl(4-CH2COOH)])[Trp(1-Me)]T[Aad](NH2)C[dK](DOTA(Lu))-NH2; thioether N-12)
KD [1]: 3.74e-10 M⁻¹ | half-life [2]: > 4.82 h | % Remaining Human ([2]; 0 min): 100.0% | remaining at 2 h ([2]; 120 min): 96.3% | % Remaining Mouse ([3]; 0 min): 100.0% | remaining at 2 h, 2 µM ([3]; pH 7.4, 120 min): 99.4% | half-life at 2 µM ([3]; pH 7.4, read-out: T1/2 (min) Mouse): > 289 min | Kd [4]: < 1 nM

C[C@@H](O)[C@@H]1NC(=O)[C@H](Cc2cn(C)c3ccccc23)NC(=O)[C@H](CCCCNC(=O)N2CCN(CC(=O)O)CC2)NC(=O)[C@H](Cc2cn(C)c3c(Cl)cccc23)NC(=O)[C@H](CCC(=O)O)N(C)C(=O)[C@H](CCCC(N)=O)NC(=O)[C@H](C2CCC2)NC(=O)[C@H](CC(N)=O)NC(=O)[C@H](Cc2cccnc2)N(C)C(=O)[C@@H](Cc2cccc(C(N)=O)c2)NC(=O)CSC[C@@H](C(=O)N[C@H](CCCCNC(=O)CN2CCN(CC(=O)O)CCN(CC(=O)O)CCN(CC(=O)O)CC2)C(N)=O)NC(=O)[C@H](CCCC(N)=O)NC1=O.[Lu+3] [PDC_EphA2-00019440-C302] ({CH2CO}-[dPhe(3-CONH2)][NMe3Pal]N[Gly(cBu)][Aad](NH2)[NMeE][Trp(1-Me,7-Cl)]K([CO-Piperazinyl(4-CH2COOH)])[Trp(1-Me)]T[Aad](NH2)C[dK](DOTA)-NH2; thioether N-12)
KD [1]: 8.18e-11 M⁻¹ | Kd [4]: < 1 nM

— US20260364215A1, “Radiopharmaceutical Compositions Targeting Ephrin Type-A Receptor 2 and Uses Thereof” (PeptiDream Inc., priority 2022, published 2026)
